# Assay results: paper PMC8770391 (Biosensors & Bioelectronics, 2022)
# Substitutions are numbered along the chain they refer to.
# B1: detection antibody against the SARS-CoV-2 antigen (antibody, V domains shown)
# VH: EVQLVESGGGLVQPGGSLRLSCAASGFTFSTYAMSWVRQAPGKGLEWVSGITGSGGATDYADSVKGRFTISRDNSKNTLYLQMNSLRAEDTAVYYCARINYRAVWGMDYWGQGTLVTVSS
# VL: DIQMTQSPSSLSASVGDRVTITCRASQNVSSYLAWYQQKPGKAPKLLIYGASNLASGVPSRFSGSGSGTDFTLTISSLQPEDFATYYCQQGANAPLTFGQGTKVETK
# B2: reporter antibody against the SARS-CoV-2 antigen (antibody, V domains shown)
# VH: EVQLVESGGGLVQPGGSLRLSCAASGFTFANNAMSWVRQAPGKGLEWVSGINGYDGDTYYADSVKGRFTISRDNSKNTLYLQMNSLRAEDTAVYYCARTYYSYAMDYWGQGTLVTVSS
# VL: B1 VL with V29I, G50W, N93Q, A94I, T106I
# Molecular target: SARS-CoV-2 antigen (nucleocapsid protein) (SARS-CoV-2; strain of the recombinant …, UniProt P0DTC9)
# Experiment: ELISA
row,Binder,Kd
1,B1,0.66 nM
2,B2,0.69 nM
